Measured values: the nanobody polyreactivity screen of Harvey et al. (2022)

test: yeast display, Sf9 membrane polyspecificity reagent, FACS + sequencing; frameworks hold sequencing errors
Summary of the method: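 Nanobodies from a synthetic yeast display library (Saccharomyces cerevisiae BJ5465), induced 36–48 hours with galactose, were stained 1 hour at 4 °C with 10% biotinylated, detergent-solubilized Sf9 membrane reagent, enriched on streptavidin microbeads, then FACS-sorted. Anti-HA (expression) and streptavidin (reagent binding) fluorescence set low and high (top ~1%) gates. Polyreactivity labels come from the gate of origin. Genes were colony-PCR amplified, MiSeq 2 × 250 sequenced and filtered by CDR length.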

For “QVQLVESGGGLVQAGGSLRLSSAASGINLEYYAMGWSRQAPGKERELVAAIDSTDGSTYYADSVKGRFTISRDNAKNTVYLQLNSLKPEDTAVYYWNVVVSWPLSLLRRDYWGQGTQVTVSS”, which “polyreactivity (PSR sort gate)” value is on record?
Its value is “low polyreactivity”.

Which “polyreactivity (PSR sort gate)” value does the source give for “QVQLVESGGCLVQAGGSLRLSCAASGRIFGYYARGWYRQSAGKERELVAAITRNGGSTYYADSVKGRFTISRDNAKNTVYIQMISLKPVDTAVYYCYATKGGGRGYWCQGTQVTVSS” here?
The value was “high polyreactivity”.

Which “polyreactivity (PSR sort gate)” value does the source give for “QVQLVESGGGLVQAGGSLRLSCDASGSTFDNYAMGWYRQAPGKERELVAAITTGVTTYYADSVKGRFTISRDNAKNTVYLQMNSLKPEDTAVYYCAADYVSYSQARHEYGYWGQGTQVTVSS” here?
Its value is “low polyreactivity”.

Which “polyreactivity (PSR sort gate)” value does the source give for “QVQLVESGGGLVQAGGSLRLSCAASGSISADYVMGWYRQAPGKDRELVAAISVSAGTTYYADSVKGRFTISRDNAKNTVYLQMNSLKPEDTAVYYCAATDSYYWLYYYGYSPGNDYWGQGTQVTVSS” here?
Its value is “low polyreactivity”.

With “QVQLVESGGGLVQAGGSLRLSCAASGITRGSNAMGWYRQAPGTERELVAAITSGSSTYYADSVKGRFTISRDNAKNTVYLQMNSLKPEDTAVYYCAAEWWDVIAPYEYWGQGTQVTVSS” as the sequence, how does the “polyreactivity (PSR sort gate)” value read?
Its value is “low polyreactivity”.

Which “polyreactivity (PSR sort gate)” value does the source give for “QVQLVESGGGLVQSGGSLRLSCAASGRTFLTYVMGWYRPAPGKERELVAAITRGGRTNYAHSEKGRFTISRDNAKNTVDLQMTSLKPEDTAVYYCARDDTPRYDYWGQGTQVTVSS” here?
The value was “low polyreactivity”.

For “QVQLVESGGGLVQAGGSLRLSCAASGFTFSDNAMGWYRQAPGKERELVAAISRSGGNTHYADSVKGRFTISRDNAKNTVFLQMNSLKPEDTAVYYCAARPPGGYLYDYWGQGTQVTVSS”, which “polyreactivity (PSR sort gate)” value is on record?
The value was “high polyreactivity”.

For “QVQLVESGGGLVQAGGSLRLSCAASGSIFAVYAMVWYRQAPGKERELVAAISWSVGSTYYADSVKGRFTISRDNAKNTVYLQMNRLKPEDTAVYYCAADLAYYLDYVEYFTEIELEGYWGQGTQVTVSS”, which “polyreactivity (PSR sort gate)” value is on record?
The value was “low polyreactivity”.

With “QVQLVESGGGLVQAGGSLRLSCAASGRTFTRYAMGWYRQAPGKERELVASITTGGRTYYADSVKGRFTISRDNAKNTVYLQMNSLKPEDTAVYYCAARTYGGFEYWGQGTQVTVSS” as the sequence, how does the “polyreactivity (PSR sort gate)” value read?
The value was “high polyreactivity”.

Which “polyreactivity (PSR sort gate)” value does the source give for “QVQIVESGGGLVQAGGSLRLSCAASGSICTHNDMGWYRPSTWKERELVAAISTSGGRTYDADSVKGSFTISRDTAKNTVYLPMNSLKPEDTAVYYCNDRSVRSRYDYWGQGTQVTVSS” here?
Its value is “high polyreactivity”.

For “QVHLVESGVGLVQAGGSLRLSCAASGFIFYYNAMGWYRQAPGKERELVAAISRTGGSTYYADSVKGRFTISRDNAKNTVYLQMNSLKPEDTAVYYCAAVGSPNRRPSRWEGSWGQGTQVTVSS”, which “polyreactivity (PSR sort gate)” value is on record?
The value was “high polyreactivity”.

With “QVQLVESGGGLVQAGGSLRLSCADSGSISRNAMGWYRQAPGKERELVAGISQSGGRTYYADSVKGRFTISRDNAKKTVYLQMNSLKPEDSAVYYCNADPRRGPGSVSSVRNNYWGQGTQVTVSS” as the sequence, how does the “polyreactivity (PSR sort gate)” value read?
Its value is “high polyreactivity”.

With “QVQLVESGGGLVQAGGSLRLSCAASGSIFEGNGMGWYRQAPGKERELVASITRSGGSTYYADSVKGRFTISRDNAKNTVYLQMNSLKPEDTAVYYCAVSRDSYGGKGSVLYDYWGQGTQVTVSS” as the sequence, how does the “polyreactivity (PSR sort gate)” value read?
The value was “low polyreactivity”.

For “QVQLVESGGGLVQAGGSLRLSCAASGSIFYRYAMGWYRQAPGKVRELVAAINNGGGRTYADSVKGRFTISRDNAKNTVYFQMNSLKPEDTAVYYCAKRTSRLAPYDYWGQGTQVTVSS”, which “polyreactivity (PSR sort gate)” value is on record?
The value was “high polyreactivity”.

With “QVQLVESGGGLVQAGGSLRLSCPASGIILTQNAMGWYRQAPGKERELVAAITESGARTYYADSVKGRFTISRDNAKNTVYLQMISLKPEDTAVYSCNAYRYYRGQVYPFYYWGHGTQVTVSS” as the sequence, how does the “polyreactivity (PSR sort gate)” value read?
The value was “low polyreactivity”.

With “QVQLVESGGGLVQAGGSLSLSCAASGLTFSAYAMGWYRQAPGKERELVAAISSGVSTNYADSVKGRFTISRDNAKNSVYLQMNSLKPEDTAVYYCKAEYWGAYEYWGQGTQVTVSS” as the sequence, how does the “polyreactivity (PSR sort gate)” value read?
Its value is “high polyreactivity”.

Which “polyreactivity (PSR sort gate)” value does the source give for “QVQLVESGGGLVQAGGSLRLSCAASGSIFYYYGMGWYRQAPGKERELVAGISSRGGRTYYADSVKGRFTISRDNAKNTVYLQMNSLKPEDTAVYYCAADRYYYAYRYYPSGYWGQGTQVTVSS” here?
The value was “low polyreactivity”.
